Target: the molecule itself
Test: two-hybrid; MaMTH (mammalian membrane split-ubiquitin two-hybrid) in MaMTH-modified HEK293T cells; bait fused to Cub-GAL4, prey fused to Nub; GAL4-driven luciferase normalised to Renilla

B1: human PFKFB4 as MaMTH fusions (PFKFB4-Cub-GAL4 bait; PFKFB4-Nub prey) (enzyme, UniProt Q16877 1-469, looked up)
chain: MASPRELTQNPLKKIWMPYSNGRPALHACQRGVCMTNCPTLIVMVGLPARGKTYISKKLTRYLNWIGVPTREFNVGQYRRDVVKTYKSFEFFLPDNEEGLKIRKQCALAALRDVRRFLSEEGGHVAVFDATNTTRERRATIFNFGEQNGYKTFFVESICVDPEVIAANIVQVKLGSPDYVNRDSDEATEDFMRRIECYENSYESLDEDLDRDLSYIKIMDVGQSYVVNRVADHIQSRIVYYLMNIHVTPRSIYLCRHGESELNLKGRIGGDPGLSPRGREFAKSLAQFISDQNIKDLKVWTSQMKRTIQTAEALGVPYEQWKVLNEIDAGVCEEMTYEEIQDNYPLEFALRDQDKYRYRYPKGESYEDLVQRLEPVIMELERQENVLVICHQAVMRCLLAYFLDKAAEQLPYLKCPLHTVLKLTPVAYGCKVESIFLNVAAVNTHRDRPQNVDISRPPEEALVTVPAHQ
notes: 6-phosphofructo-2-kinase/fructose-2,6-biphosphatase 4 (PFKFB4), human, inserted in-frame into the MaMTH bait or prey vectors; One molecule for the differently tagged copies of the same protein; The bait copy carries Cub-GAL4; The prey copy carries Nub at its N- or C-terminus (both were tested against the PFKFB4 bait); also called hPFKFB4; source: MaMTH-modified HEK293T, transfected, in cells; not …
fold increase of luciferase expression over PFKFB4-Cub-GAL4 alone (Nub at the C-terminus of the prey): 13 times | fold increase of luciferase expression over PFKFB4-Cub-GAL4 alone (Nub at the N-terminus of the prey): 5 times

— paper PMC9348664, “PFKFB4 interacts with ICMT and activates RAS/AKT signaling-dependent cell migration in melanoma” (Life Science Alliance, 2022)
